Laboratory results reported in PMC6395706, “Unique properties of PTEN-L contribute to neuroprotection in response to ischemic-like stress” (Scientific Reports, 2019).
Each block holds one molecule with its values, some of them ahead of it.

Columns and labels:
[1] = target: endogenous PTEN-L (mouse (endogenous in primary cortical neurons)); assay: proximity ligation; Duolink PLA with anti-GAB2 and anti-PTEN-L antibodies in fixed, permeabilised primary neurons at DIV 9 treated with 50 µM glutamate for 60 min; proximities below 40 nm
[2] = target: T1, PTEN-L:EGFP (human, UniProt P60484-2 1-576); assay: as above; details: partners not purified
T1 construct: human PTEN-L (PTENα), the long translational variant of PTEN with 173 additional N-terminal residues (aa 1-173 unique, aa 174-576 shared with PTEN); gene synthesis with an ATG start codon replacing the alternative CTG start; PCR primers run from the start codon to the last codon before the spacer; A Gly-Gly-Thr-Gly-Gly spacer precedes the C-terminal EGFP; Cloned in the lentiviral transfer vector …

- fold decrease of PLA interaction complexes, glutamate against PBS [1]: 3.98 fold
Molecule: GRB2-associated-binding protein 2 (from UniProt Q9Z1S8 1-665) (natural protein)

- fold decrease of PLA interaction complexes, glutamate against PBS [2]: 4.61 fold
B1: GRB2-associated-binding protein 2 (natural protein, UniProt Q9Z1S8 1-665, looked up)
chain: MSGGGGDDVVCTGWLRKSPPEKKLRRYAWKKRWFILRSGRMSGDPDVLEYYKNEHSKKPLRIINLNLCEQVDAGLTFNKKELQDSFVFDIKTSERTFYLVAETEADMNKWVQSICQICGFNQAEESTDSLRNLSSASHGPRSSPAEFSSSQHLLRERKSSAPSHSSQPTLFTFEPPVSSHMQPTLSTSAPQEYLYLHQCISRRTENARSASFSQGTRQKSDTAVQKLAQSNGHCINGVGGQVHGFYSLPKPSRHNTEFKDSTYDLPRSLASHGHTKSSLTGSETDNEDVYTFKMPSNTLCRELGDLLVDNMDVPTTPLSAYQIPRTFTLDKNHNAMTVATPGDSAIAPPPRPPKPSQAETSQWGSIQQRPPISENSRSVAATIPRRNTLPAMDNSRLHRASSCETYEYPARGSGESASWSAEPPGKTAVGRSNSASSDDNYVPMNPGSSTLLAMERPGDNSQSVYIPMSPGPHHFDPLGYPSTALPIHRGPSRGSEIQPPPVNRNLKPDRKAKPTPLDLRNNTVIDELPFKSPVTKSWSRINHTFNSSSSQYCRPISTQSITSTDSGDSEENYVPMQNPVSASPVPSGTNSPAPKKSTGSVDYLALDFQPGSPSPHRKPSTSSVTSDEKVDYVQVDKEKTQALQNTMQEWTDVRQSSEPSKGAKL
notes: also called Gab2; GAB2; source: endogenous, mouse primary cortical neurons; in cytosolic or nuclear fractions, or in fixed cells
